In patent CN113880955A (dated 2022):
Where a chain is given by its changes, count along the chain named. In names and notes the source's numbering stands.

Columns and labels:
人CD70 [1] = biological target: T1, 人CD70 (human, UniProt P32970 1-193); experiment: flow cytometry on CD47+CD70+ U266 cells (double positive: binding through CD70 and/or CD47)
T1 construct: whole, on cells; also called 人类CD70; CD27L
T1 sequence (looked up): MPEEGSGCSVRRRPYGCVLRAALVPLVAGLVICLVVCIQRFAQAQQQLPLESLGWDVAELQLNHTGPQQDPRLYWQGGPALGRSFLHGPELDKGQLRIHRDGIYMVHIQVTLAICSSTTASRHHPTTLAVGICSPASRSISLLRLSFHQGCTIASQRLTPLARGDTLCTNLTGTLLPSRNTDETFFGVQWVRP

人CD47 = biological target: T2, 人CD47 (human, UniProt Q08722 19-323); experiment: as above
T2 construct: whole, on cells

人CD70 [2] = biological target: T1, 人CD70; experiment: flow cytometry on CHO cells expressing human CD70
人CD70 [3] = biological target: T1, 人CD70; experiment: flow cytometry on CD47+CD70+ Raji cells

T2 sequence (Q08722 19-323): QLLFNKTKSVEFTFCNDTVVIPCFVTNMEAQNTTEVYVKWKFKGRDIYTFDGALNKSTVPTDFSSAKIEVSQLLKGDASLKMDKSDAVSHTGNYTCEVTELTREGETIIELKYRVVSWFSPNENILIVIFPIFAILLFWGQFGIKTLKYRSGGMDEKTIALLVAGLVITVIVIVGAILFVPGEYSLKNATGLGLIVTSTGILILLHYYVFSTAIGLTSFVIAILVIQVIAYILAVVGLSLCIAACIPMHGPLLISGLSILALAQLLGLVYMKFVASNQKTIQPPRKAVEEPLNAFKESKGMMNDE

B1: IMM4002 (bispecific antibody, human IgG1, kappa)
heavy: not shown
light: DIVLTQSPASLAVSPGQRATITCRASKSVSASGYSFLHWYQQKPGQPPKLLIYLASNLESGVPARFSGSGSGTDFTLTINPVEANDTANYYCQHSRELPPTFGGGTKVEIKRTVAAPSVFIFPPSDEQLKSGTASVVCLLNNFYPREAKVQWKVDNALQSGNSQESVTEQDSKDSTYSLSSTLTLSKADYEKHKVYACEVTHQGLSSPVTKSFNRGEC
notes: Made in CHO-S cells; also called 重组融合蛋白IMM4002
B1: binds (人CD70 [1]).

B2: IMM4002M (bispecific antibody, human IgG1, kappa)
heavy: not shown
light: B1 light with N85E
notes: As IMM4002, but the light chain variable region carries N85E, which removes the glycosylation site (antibody part = IMM40M); also called 重组融合蛋白IMM4002M
B2: binds (人CD47); binds (人CD70 [1]).

B3: IMM40H (antibody, human IgG1, kappa, V domains shown)
VH: QVQLVQSGAEVKKPGASVKVSCKVSGYTFTDSALHWVRQAPGKGLEWMGVISTYDGDTDYNQKFKGRVTMTEDTSTDTAYMELSSLRSEDTAVYYCARRGYYDYDWFPYWGQGTLVTVSA
VL: DIVLTQSPASLAVSPGQRATITCRASKSVSASGYSFLHWYQQKPGQPPKLLIYLASNLESGVPARFSGSGSGTDFTLTINPVEANDTANYYCQHSRELPPTFGGGTKVEIKR
notes: IgG antibody against CD70; also called CD70抗体IMM40H; CD70单特异性抗体IMM40H
B3: binds (人CD70 [2]).

B4: IMM4003 (bispecific antibody, human IgG1, kappa)
heavy: QVQLVQSGAEVKKPGASVKVSCKVSGYTFTDSALHWVRQAPGKGLEWMGVISTYDGDTDYNQKFKGRVTMTEDTSTDTAYMELSSLRSEDTAVYYCARRGYYDYDWFPYWGQGTLVTVSAASTKGPSVFPLAPSSKSTSGGTAALGCLVKDYFPEPVTVSWNSGALTSGVHTFPAVLQSSGLYSLSSVVTVPSSSLGTQTYICNVNHKPSNTKVDKRVEPKSCDKTHTCPPCPAPELLGGPSVFLFPPKPKDTLMISRTPEVTCVVVDVSHEDPEVKFNWYVDGVEVHNAKTKPREEQYNATYRVVSVLTVLHQDWLNGKEYKCKVSNKALPAPIAATISKAKGQPREPQVYTLPPSREEMTKNQVSLTCLVKGFYPSDIAVEWESNGQPENNYKTTPPVLDSDGSFFLYSKLTVDKSRWQQGNVFSCSVMHEALHNHYTQKSLSLSPGK
light: not shown
notes: also called 重组融合蛋白IMM4003
B4: binds (人CD70 [2]).

B5: Cusatuzumab (antibody, human IgG1, lambda, V domains shown)
VH: EVQLVESGGGLVQPGGSLRLSCAASGFTFSVYYMNWVRQAPGKGLEWVSDINNEGGTTYYADSVKGRFTISRDNSKNSLYLQMNSLRAEDTAVYYCARDAGYSNHVPIFDSWGQGTLVTVSS
VL: QAVVTQEPSLTVSPGGTVTLTCGLKSGSVTSDNFPTWYQQTPGQAPRLLIYNTNTRHSGVPDRFSGSILGNKAALTITGAQADDEAEYFCALFISNPSVEFGGGTQLTVLG
notes: IgG antibody against CD70, used as control
B5: binds (人CD70 [3]).
